Data taken from the Human Domainome abundance scans (Beltran et al. 2025).
± gives the uncertainty stated by the source.

B1: Homeobox protein cut-like 1, residues 548 to 629; numbered along this chain, P39880 (parent)
chain: GEEMDTAEIARQVKEQLIKHNIGQRIFGHYVLGLSQGSVSEILARPKPWNKLTVRGKEPFHKMKQFLSDEQNILALRSIQGR

Variants of: B1
Assay: abundance fitness (aPCA) (normalised: wild type 0, dead -1); higher = more abundant; growth selection in yeast, the domain comes from the species named
Details: Homo sapiens

Point of comparison: GEEMDTAEIARQVKEQLIKHNIGQRIFGHYVLGLSQGSVSEILARPKHWNKLTVRGKEPFHKMKQFLSDEQNILALRSIQGR [P48H], abundance fitness -0.16 ± 0.061. Against it:
- GEEMDTAEIARQVKEQLIKHNIGSRIFGHYVLGLSQGSVSEILARPKPWNKLTVRGKEPFHKMKQFLSDEQNILALRSIQGR [Q24S] — within error, -0.118 ± 0.034
- GEEMDTAEIARQVKEQLIKHNIGQRIFGHYVLGLSQGSVSEILARPKPWNKLTVRGKEPFHKMTQFLSDEQNILALRSIQGR [K64T] — lower, -0.287 ± 0.043
- GEEMDTAEIARQVKEQLIKHNIGQRIFGHYVLGLSRGSVSEILARPKPWNKLTVRGKEPFHKMKQFLSDEQNILALRSIQGR [Q36R] — higher, -0.049 ± 0.025
- GEEMDTAEIARQVKEQLIKHNIGQRIFGHYVLGLSCGSVSEILARPKPWNKLTVRGKEPFHKMKQFLSDEQNILALRSIQGR [Q36C] — within error, -0.157 ± 0.047
- GEEMDTAEIARQVKEQLIKHNIGQRIFGHYVLGLSQGSVSEILARPKPWNKLTVEGKEPFHKMKQFLSDEQNILALRSIQGR [R55E] — higher, 0.135 ± 0.028
- GEEMDLAEIARQVKEQLIKHNIGQRIFGHYVLGLSQGSVSEILARPKPWNKLTVRGKEPFHKMKQFLSDEQNILALRSIQGR [T6L] — lower, -1.02 ± 0.073
- GEEMDTKEIARQVKEQLIKHNIGQRIFGHYVLGLSQGSVSEILARPKPWNKLTVRGKEPFHKMKQFLSDEQNILALRSIQGR [A7K] — higher, -0.003 ± 0.035
- GEEMDTCEIARQVKEQLIKHNIGQRIFGHYVLGLSQGSVSEILARPKPWNKLTVRGKEPFHKMKQFLSDEQNILALRSIQGR [A7C] — within error, -0.081 ± 0.044
- GEEMDTAEIARQVKEQLIKHTIGQRIFGHYVLGLSQGSVSEILARPKPWNKLTVRGKEPFHKMKQFLSDEQNILALRSIQGR [N21T] — lower, -0.305 ± 0.035
- GEEMDTAEIARQVKEQLIKHKIGQRIFGHYVLGLSQGSVSEILARPKPWNKLTVRGKEPFHKMKQFLSDEQNILALRSIQGR [N21K] — higher, -0.055 ± 0.033
- GEEMDTAEIARQVKEQLIKHNIGQRIFGHYVLGLSQGSVSEILARPKPWNKLTVRGKEPFHKMKQFLSDEQNILALRSISGR [Q80S] — higher, -0.017 ± 0.036
- GEEMDTAEIARQVKEQLIKHNIGQRIFGHYVLGLSQGSVSEILARPKPWNKLTVRGKEPFHKMKQFCSDEQNILALRSIQGR [L67C] — lower, -0.498 ± 0.079
- GEEMDTAEIADQVKEQLIKHNIGQRIFGHYVLGLSQGSVSEILARPKPWNKLTVRGKEPFHKMKQFLSDEQNILALRSIQGR [R11D] — within error, -0.274 ± 0.085
- GEEMDTAEIARQVKEQLIKHNIGQRIFGHYVLGLSQGSVSEILARPKPWNKLTVRGKEPFHKMKKFLSDEQNILALRSIQGR [Q65K] — within error, -0.076 ± 0.035
- GEEMDTAEIARQVKEQLIKHNIGQRIFGHYVLGLSQGSVSEILARPKPWNKLTVRGKEPFHKMKQSLSDEQNILALRSIQGR [F66S] — lower, -0.829 ± 0.065
- GEEMDTAEIARQVKEQLIKHNIGQRIFGHYVLGLSQGSVSEILARPKPWNKLTVRGKEPFHKMKQYLSDEQNILALRSIQGR [F66Y] — lower, -0.924 ± 0.18
- GEEMDTAEIARQVKEQLIKHNIGQRIFGHYVLGLSQGSVSEILARPKYWNKLTVRGKEPFHKMKQFLSDEQNILALRSIQGR [P48Y] — lower, -0.78 ± 0.12
- GEEMDTAEIARQVKEQLIKHNIGQRIFGHYVLGLSQGSVSEILARPKPWNKLTVRGKEPFHKMKQFLSDEQNILALCSIQGR [R77C] — higher, -0.032 ± 0.046
- GEEMDTAEIARQVKEQLIKHNIGQRIFGHKVLGLSQGSVSEILARPKPWNKLTVRGKEPFHKMKQFLSDEQNILALRSIQGR [Y30K] — within error, -0.091 ± 0.034
- GEEMDTAEIARQVKEQLIKHNIGQRIFGHYVLGLSQGSVSEILARPKPWNKLTVRGKEPFHTMKQFLSDEQNILALRSIQGR [K62T] — lower, -0.305 ± 0.044
- GEEMDTAEIARQHKEQLIKHNIGQRIFGHYVLGLSQGSVSEILARPKPWNKLTVRGKEPFHKMKQFLSDEQNILALRSIQGR [V13H] — lower, -0.574 ± 0.069
- GEEMDTAEIARQVKEQLIKHNIGQRIFGHYVLGLFQGSVSEILARPKPWNKLTVRGKEPFHKMKQFLSDEQNILALRSIQGR [S35F] — within error, -0.126 ± 0.087
- VEEMDTAEIARQVKEQLIKHNIGQRIFGHYVLGLSQGSVSEILARPKPWNKLTVRGKEPFHKMKQFLSDEQNILALRSIQGR [G1V] — higher, -0.01 ± 0.037
- DEEMDTAEIARQVKEQLIKHNIGQRIFGHYVLGLSQGSVSEILARPKPWNKLTVRGKEPFHKMKQFLSDEQNILALRSIQGR [G1D] — higher, 0.029 ± 0.052
- GEEMDTAEIARQVKEQLIKHNIGQRIFGHYVLGLSQGSGSEILARPKPWNKLTVRGKEPFHKMKQFLSDEQNILALRSIQGR [V39G] — lower, -0.725 ± 0.033
- GEEMDTAEIARQVKEQLIKHNIGQRIFGHYVLGLSQGSHSEILARPKPWNKLTVRGKEPFHKMKQFLSDEQNILALRSIQGR [V39H] — lower, -0.844 ± 0.12
- GEEKDTAEIARQVKEQLIKHNIGQRIFGHYVLGLSQGSVSEILARPKPWNKLTVRGKEPFHKMKQFLSDEQNILALRSIQGR [M4K] — lower, -0.36 ± 0.039
- GEEDDTAEIARQVKEQLIKHNIGQRIFGHYVLGLSQGSVSEILARPKPWNKLTVRGKEPFHKMKQFLSDEQNILALRSIQGR [M4D] — lower, -0.304 ± 0.054
- GEEMDTAEIARQVKEQLIKHNIGQRIFGHYVLGLSQGSVSEILARPKPWNKLTVRGKEPFHKMKQFLSDEQNIPALRSIQGR [L74P] — lower, -0.417 ± 0.049
- GEEMDTAEIARQVKEQLIKHNIGQRIFGHYVLGLSQGSVSEILMRPKPWNKLTVRGKEPFHKMKQFLSDEQNILALRSIQGR [A44M] — higher, 0.047 ± 0.037
- GEEMDTAEIARQVKEQLIKHNIGQRIFGHYVLGLSQGSVSEILARPKPWNKLTVRGKEPFHKMKQFLSDEQNILALRSIQCR [G81C] — higher, 0.027 ± 0.047
- GEEMDTAEIARQVKEQLIKHNIGQRIFGHYVLGLSQGSVSEILARPKPWNKLTVRGKEPFHKMKQFLSDEQNILALRSIQAR [G81A] — higher, 0.044 ± 0.037
- GEEMDTAEIARQVKEQLIKHNIGQRIFGHYVLGLSQGSVSEILARPKPWNKLTVRGKEPFHKMKQFLSDEQNILALRSIQTR [G81T] — higher, 0.037 ± 0.047
